Measurements as given in US20180066067A1 (Novartis, published 2018).

T1: ZNRF3 ΔRING (missing amino acids 293-334), stably expressed on HEK293 cells (human, UniProt Q9ULT6 56-936)
T1 construct: No tag is stated for the cell line used in FACS; also called ZNRF3 lacking the RING domain
T1 sequence: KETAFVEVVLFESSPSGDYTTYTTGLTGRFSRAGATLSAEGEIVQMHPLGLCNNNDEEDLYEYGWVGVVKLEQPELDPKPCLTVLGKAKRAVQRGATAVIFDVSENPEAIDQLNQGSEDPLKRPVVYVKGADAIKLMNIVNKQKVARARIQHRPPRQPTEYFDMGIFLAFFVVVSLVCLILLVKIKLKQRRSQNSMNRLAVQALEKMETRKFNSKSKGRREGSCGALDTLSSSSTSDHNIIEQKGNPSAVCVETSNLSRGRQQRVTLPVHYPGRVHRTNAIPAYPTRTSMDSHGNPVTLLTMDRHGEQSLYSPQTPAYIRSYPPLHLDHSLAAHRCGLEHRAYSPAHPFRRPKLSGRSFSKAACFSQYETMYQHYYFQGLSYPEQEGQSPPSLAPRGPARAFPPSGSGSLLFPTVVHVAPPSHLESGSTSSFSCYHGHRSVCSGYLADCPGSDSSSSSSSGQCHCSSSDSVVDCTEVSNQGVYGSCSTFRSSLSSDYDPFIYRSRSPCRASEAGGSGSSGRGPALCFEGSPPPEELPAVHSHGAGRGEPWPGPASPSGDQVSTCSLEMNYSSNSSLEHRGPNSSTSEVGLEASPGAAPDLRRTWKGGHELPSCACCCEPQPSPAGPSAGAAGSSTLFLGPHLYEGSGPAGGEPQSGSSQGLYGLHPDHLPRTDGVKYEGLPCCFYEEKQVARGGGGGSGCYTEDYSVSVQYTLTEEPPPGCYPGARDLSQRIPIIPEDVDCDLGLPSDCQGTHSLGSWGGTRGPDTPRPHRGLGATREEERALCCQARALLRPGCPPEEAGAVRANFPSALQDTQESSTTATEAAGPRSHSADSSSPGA

T2: Fc-ZNRF3 ECD (extracellular domain, amino acids 56-219 of SEQ ID NO: 1) (human, UniProt Q9ULT6 56-219)
T2 construct: The order of the parts follows the printed name 'Fc-ZNRF3 ECD'; also called purified ZNRF3 extracellular domain; not shown: Fc part
T2 sequence: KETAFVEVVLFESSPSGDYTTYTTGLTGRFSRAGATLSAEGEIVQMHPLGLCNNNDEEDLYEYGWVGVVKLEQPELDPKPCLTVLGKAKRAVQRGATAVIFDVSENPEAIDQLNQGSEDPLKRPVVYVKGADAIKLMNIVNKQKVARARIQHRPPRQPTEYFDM

T3: N-terminal Myc-tagged FZD4 (Frizzled 4) (UniProt Q9ULV1 37-537, limits assumed)
T3 construct: whole, on cells; On transiently transfected HEK293 cells; not shown: N-terminal Myc tag
T3 sequence (looked up): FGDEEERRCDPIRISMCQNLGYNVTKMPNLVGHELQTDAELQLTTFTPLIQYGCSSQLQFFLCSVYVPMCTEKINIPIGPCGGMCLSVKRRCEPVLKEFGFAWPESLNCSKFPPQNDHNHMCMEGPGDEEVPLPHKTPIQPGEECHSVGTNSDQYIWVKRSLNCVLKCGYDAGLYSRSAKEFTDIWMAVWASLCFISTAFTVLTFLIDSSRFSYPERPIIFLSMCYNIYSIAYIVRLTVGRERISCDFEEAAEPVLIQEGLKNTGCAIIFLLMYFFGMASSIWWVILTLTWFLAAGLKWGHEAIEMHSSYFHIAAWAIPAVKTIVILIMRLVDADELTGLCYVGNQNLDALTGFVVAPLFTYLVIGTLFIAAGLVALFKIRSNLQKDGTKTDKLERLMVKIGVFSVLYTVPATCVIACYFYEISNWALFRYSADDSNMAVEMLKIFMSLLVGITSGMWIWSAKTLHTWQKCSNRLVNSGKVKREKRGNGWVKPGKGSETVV

B1: ZNRF3 P103A ECD-TM (receptor, not shown: small tags and cut ends)
chain: KETAFVEVVLFESSPSGDYTTYTTGLTGRFSRAGATLSAEGEIVQMHALGLCNNNDEEDLYEYGWVGVVKLEQPELDPKPCLTVLGKAKRAVQRGATAVIFDVSENPEAIDQLNQGSEDPLKRPVVYVKGADAIKLMNIVNKQKVARARIQHRPPRQPTEYFDMGIFLAFFVVVSLVCLILLVKIKLKQRRSQNSMNRLAV
notes: On transiently transfected HEK293 cells, N-terminally Myc-tagged
B2: Fab clone Ab1 (Fab, V domains shown)
VH: QVQLVQSGAEVKKPGASVKVSCKASGYTFTSYHMHWVRQAPGQGLEWMGWINPYTGDTNYAQKFQGRVTMTRDTSISTAYMELSRLRSEDTAVYYCAREKVYMDIWGQGTLVTVSS
VL: DIELTQPPSVSVSPGQTASITCSGDSIPSKYAHWYQQKPGQAPVLVIYGKSHRPSGIPERFSGSNSGNTATLTISGTQAEDEADYYCAAWDLLGDGWVFGGGTKLTVLG
notes: Fab from phage display panning on Fc-ZNRF3 ECD; Light chain Lch-lambda3, heavy chain Hch-VH1B; the heavy chain entry carries C-terminal tags; also called ZNRF3 hFab
B3: Fab clone Ab2 (Fab, V domains shown)
VH: EVQLVESGGGLVKPGGSLRLSCAASGFTFSDYGIHWVRQAPGKGLEWVGRIKSKTDGGITEYAAPVKGRFTISRDDSKNTLYLQMNSLKTEDTAVYYCARAIYYLEAFDVWGQGTLVTVSS
VL: DIELTQPPSVSVSPGQTASITCSGDSLGSYYVHWYQQKPGQAPVLVIYRNKQRPSGIPERFSGSNSGNTATLTISGTQAEDEADYYCQTYDWMYSSRVFGGGTKLTVLG
notes: also called parental Ab2; ZNRF3 hFab
B4: RSPO1-GFP (ligand, UniProt Q2MKA7 21-263, looked up)
chain: SRGIKGKRQRRISAEGSQACAKGCELCSEVNGCLKCSPKLFILLERNDIRQVGVCLPSCPPGYFDARNPDMNKCIKCKIEHCEACFSHNFCTKCKEGLYLHKGRCYPACPEGSSAANGTMECSSPAQCEMSEWSPWGPCSKKQQLCGFRRGSEERTRRVLHAPVGDHAACSDTKETRRCTVRRVPCPEGQKRRKGGQGRRENANRNLARKESKEAGAGSRRRKGQQQQQQQGTVGPLTSAGPA
notes: Used as conditioned medium; The order of the parts follows the printed name; also called R-spondin 1 GFP fusion; R-spondin; not shown: GFP

Experiments:
[1] = molecular target: B4; assay: cell-based binding assay: RSPO1-GFP conditioned medium for 1 hour on transfected HEK293 cells, immunofluorescence
Experimental: (§1) Since ZNRF3 regulates the membrane level of Frizzled proteins, we tested whether R-spondin enhances Wnt signaling through inhibiting ZNRF3. […] To do so, the inventors transiently transfected HEK293 cells with N-terminal Myc-tagged FZD4 (Frizzled 4), or ZNRF3 ECD-TM, or ZNRF3 P103A ECD-TM, then incubated these cells with RSPO1-GFP conditioned medium for 1 hour. We determined the binding of RSPO1-GFP to Myc tagged proteins expressed on the cell surface using immunoflurorescence using anti-GFP and anti-Myc antibodies.

[2] = molecular target: T1, ZNRF3 ΔRING (missing amino acids …); assay: FACS on HEK293 cells stably expressing ZNRF3 ΔRING
[3] = molecular target: T2, Fc-ZNRF3 ECD (extracellular domain, …); assay: ELISA on Fc-ZNRF3 ECD
[4] = molecular target: T3, N-terminal Myc-tagged FZD4 (Frizzled 4); assay: cell-based binding assay: RSPO1-GFP conditioned medium for 1 hour on transfected HEK293 cells, immunofluorescence
Experimental: as §1

Binder | binding result [1] | binding result [2] | binding result [3] | binding result [4]
B1 | no binding |  |  | 
B2 |  | binds | binds | 
B3 |  | binds | binds | 
B4 |  |  |  | no binding
